This assay addresses NaV1.5 (main cardiac voltage-gated sodium channel) (mouse (endogenous in heart)) (UniProt Q9JJV9). Put plainly: co-IP.

Consider 1 substance from article PMC12903045.

Sequence of UniProt Q9JJV9 (Q9JJV9 whole entry): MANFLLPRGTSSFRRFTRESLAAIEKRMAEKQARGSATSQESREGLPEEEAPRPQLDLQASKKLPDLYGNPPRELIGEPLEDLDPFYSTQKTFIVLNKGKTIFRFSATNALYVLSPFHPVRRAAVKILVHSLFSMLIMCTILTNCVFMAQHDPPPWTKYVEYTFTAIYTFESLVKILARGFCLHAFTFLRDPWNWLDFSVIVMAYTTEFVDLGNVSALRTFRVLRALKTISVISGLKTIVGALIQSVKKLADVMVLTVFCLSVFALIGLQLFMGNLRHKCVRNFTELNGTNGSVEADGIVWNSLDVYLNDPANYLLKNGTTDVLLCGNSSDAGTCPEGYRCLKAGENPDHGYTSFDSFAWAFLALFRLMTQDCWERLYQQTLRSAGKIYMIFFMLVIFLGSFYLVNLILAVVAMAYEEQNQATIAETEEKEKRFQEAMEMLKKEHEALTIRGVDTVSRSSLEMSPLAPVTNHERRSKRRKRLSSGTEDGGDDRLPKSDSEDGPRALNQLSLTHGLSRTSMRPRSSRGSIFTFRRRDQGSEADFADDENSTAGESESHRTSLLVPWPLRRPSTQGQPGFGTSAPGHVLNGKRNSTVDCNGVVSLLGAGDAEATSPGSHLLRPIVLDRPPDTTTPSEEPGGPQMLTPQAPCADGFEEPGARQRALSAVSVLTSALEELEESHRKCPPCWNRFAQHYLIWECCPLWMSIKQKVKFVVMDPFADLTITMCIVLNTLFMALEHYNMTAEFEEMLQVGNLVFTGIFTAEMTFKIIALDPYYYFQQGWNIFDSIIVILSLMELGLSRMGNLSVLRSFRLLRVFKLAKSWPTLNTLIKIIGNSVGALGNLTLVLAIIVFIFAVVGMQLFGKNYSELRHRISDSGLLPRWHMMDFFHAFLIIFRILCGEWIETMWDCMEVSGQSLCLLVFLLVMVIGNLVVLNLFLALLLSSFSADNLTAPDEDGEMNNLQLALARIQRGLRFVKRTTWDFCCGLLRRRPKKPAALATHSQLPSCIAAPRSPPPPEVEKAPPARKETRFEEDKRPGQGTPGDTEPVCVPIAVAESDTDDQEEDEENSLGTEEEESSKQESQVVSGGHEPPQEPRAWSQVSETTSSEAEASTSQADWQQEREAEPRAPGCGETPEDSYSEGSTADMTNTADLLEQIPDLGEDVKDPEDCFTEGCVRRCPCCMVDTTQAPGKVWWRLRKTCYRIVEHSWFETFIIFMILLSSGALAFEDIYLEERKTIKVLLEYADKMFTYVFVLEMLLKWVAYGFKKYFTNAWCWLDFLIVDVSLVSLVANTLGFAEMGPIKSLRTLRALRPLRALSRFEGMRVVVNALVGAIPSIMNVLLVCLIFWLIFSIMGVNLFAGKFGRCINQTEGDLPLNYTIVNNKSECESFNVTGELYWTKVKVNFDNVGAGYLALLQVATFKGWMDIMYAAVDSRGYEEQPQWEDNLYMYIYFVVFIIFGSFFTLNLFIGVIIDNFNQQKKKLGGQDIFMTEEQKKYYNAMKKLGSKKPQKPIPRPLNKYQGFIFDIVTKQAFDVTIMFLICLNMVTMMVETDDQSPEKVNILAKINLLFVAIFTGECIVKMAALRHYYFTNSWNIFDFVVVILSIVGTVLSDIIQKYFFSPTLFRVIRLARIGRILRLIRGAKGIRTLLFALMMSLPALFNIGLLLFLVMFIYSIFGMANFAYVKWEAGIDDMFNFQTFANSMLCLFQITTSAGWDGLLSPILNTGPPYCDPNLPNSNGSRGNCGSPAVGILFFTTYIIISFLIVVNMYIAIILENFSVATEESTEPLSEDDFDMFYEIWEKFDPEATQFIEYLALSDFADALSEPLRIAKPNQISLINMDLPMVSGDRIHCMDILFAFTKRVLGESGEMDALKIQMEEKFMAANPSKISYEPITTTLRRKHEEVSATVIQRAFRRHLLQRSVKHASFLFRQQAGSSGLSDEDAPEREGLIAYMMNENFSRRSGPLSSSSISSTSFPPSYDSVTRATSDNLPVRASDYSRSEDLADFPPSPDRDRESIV

“FGF13 (fibroblast growth factor homologous factor 13) (from UniProt P70377 1-245) (natural protein)” showed a percent of FGF13 depleted from the lysate by immunoprecipitation of NaV1.5 of 35%.
